Patent US20210009693A1 (MABSPACE BIOSCIENCES SUZHOU, published 2021)
Like-named read-outs stand apart in the source and are kept apart here.

Key:
[1] = target: T1, Recombinant Mouse PD-L1/CD274 Protein (mPD-L1-his) (mouse, UniProt Q9EP73 19-238); assay: ELISA, plate coated with mouse PD-L1-his
T1 construct: range 19-238; ACRO Biosystem PD1-M5220; also called mouse PD-L1-his

[2] = target: T2, Recombinant Human PD-L1/CD274 Protein (hPD-L1-his) (human, UniProt Q9NZQ7 19-238); assay: ELISA on coated human PD-L1-his
T2 construct: range 19-238; ACRO Biosystem PD1-H5229, made in HEK293; also called human PD-L1-his; hPD-L-his
T2 sequence (Q9NZQ7 other isoform, or with tags, fused parts or gaps limits assumed): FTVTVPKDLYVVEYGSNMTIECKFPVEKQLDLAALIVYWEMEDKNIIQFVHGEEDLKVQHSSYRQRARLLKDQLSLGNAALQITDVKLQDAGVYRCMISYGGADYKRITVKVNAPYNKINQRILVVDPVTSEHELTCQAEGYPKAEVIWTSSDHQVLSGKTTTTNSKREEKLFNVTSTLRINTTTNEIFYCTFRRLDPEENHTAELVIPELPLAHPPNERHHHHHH
Description: (§1) High-binding clear polystyrene 96-well plates (Nunc) were coated with 100 μl/well of a 0.5 μg/ml human or cynomolgus (cyno) PD-L1-his in high pH coating buffer and incubated overnight at 4° C. Then plates were washed once on an automatic plate washer using washing buffer (PBS+0.1% Tween 20 (Sigma)). 200 μl of blocking buffer (PBS+1% BSA+1% normal goat serum+0.05% Tween-20) was added to each well and incubated for 2 hours at room temperature. Then add serial diluted antibodies with dilution buffer (PBS+1% BSA+1% normal goat serum+0.01% Tween-20) and incubated for 1 hour at RT. The plates were then washed 3 times using the method described above. […] After that the ELISA plates were allowed to incubate for 60 min at RT then plates were washed 3 times with 250 μl/well washing buffer. Finally, 100 μl/well of TMB was added to each well and the reaction was terminated using 0.64M H₂SO₄. The plates were read on a Thermo Multiscan FC at 450 nM (see FIG. 6A to 6E).

[3] = target: T3, Cynomolgus PD-L1/CD274 with His tag (cPD-L1-His) (cynomolgus); assay: ELISA on coated cynomolgus PD-L1-his
T3 construct: range 19-238; ACRO Biosystem PD1-C52H4; also called cynomolgus (cyno) PD-L1-his; cynomolgis PD-L1-his
Description: as §1

[4] = target: T2, Recombinant Human PD-L1/CD274 Protein …; assay: ELISA on coated hPD-L1-his; bound at pH7.4, then 2 h at pH5.5
[5] = target: T2, Recombinant Human PD-L1/CD274 Protein …; assay: ELISA on coated hPD-L1-his; bound at pH7.4, then 2 h at pH7.4
[6] = target: T4, hPD-L2-Fc (human, UniProt Q9BQ51 20-219); assay: ELISA, plate coated with hPD-L2-Fc
T4 construct: Acrobiosystems PD2-H5251; also called human PD-L2 protein; not shown: Fc tag
T4 sequence (looked up): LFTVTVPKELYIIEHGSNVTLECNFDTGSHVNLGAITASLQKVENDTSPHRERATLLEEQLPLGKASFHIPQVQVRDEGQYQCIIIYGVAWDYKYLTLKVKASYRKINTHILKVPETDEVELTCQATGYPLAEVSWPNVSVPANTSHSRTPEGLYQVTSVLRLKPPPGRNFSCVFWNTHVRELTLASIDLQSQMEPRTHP

[7] = target: T5, wild type human PD-L1-Fc protein (SEQ ID NO: 107) (human); assay: ELISA on captured PD-L1-Fc, as in Example 18A
T5 construct: Extracellular human PD-L1 (amino acid 19-238) with Fc fragment of human IgG1, expressed in 293T cells and used as culture supernatant; also called WT PD-L1; wild-type PD-L1
T5 sequence (chain, as listed by the source limits assumed): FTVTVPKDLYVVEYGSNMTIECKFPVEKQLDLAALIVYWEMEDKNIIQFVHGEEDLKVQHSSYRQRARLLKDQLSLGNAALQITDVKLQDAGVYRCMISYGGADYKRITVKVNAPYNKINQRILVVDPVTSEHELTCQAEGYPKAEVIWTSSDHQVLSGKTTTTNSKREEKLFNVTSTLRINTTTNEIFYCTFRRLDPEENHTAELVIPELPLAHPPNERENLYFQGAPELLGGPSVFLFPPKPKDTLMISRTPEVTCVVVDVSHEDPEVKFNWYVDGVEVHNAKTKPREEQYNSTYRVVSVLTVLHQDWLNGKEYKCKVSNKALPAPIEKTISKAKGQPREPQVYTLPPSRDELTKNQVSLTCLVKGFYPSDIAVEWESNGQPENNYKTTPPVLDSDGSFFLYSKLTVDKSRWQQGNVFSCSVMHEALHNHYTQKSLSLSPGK

[8] = target: T6, human PD-L1-Fc mutant E58A (human); assay: ELISA on captured PD-L1-Fc, as in Example 18A
T6 construct: Position 58 counts on native human PD-L1 (NP_054862.1); also called E58A mutant
T6 sequence (chain, as listed by the source E58A E58A limits assumed): as the sequence (chain, as listed by the source limits assumed) above, with E40A counted along it

[9] = target: T7, human PD-L1 expressed on cells (human, UniProt Q9NZQ7 19-290); assay: FACS, IFN-gamma stimulated HCC827 cells
T7 construct: whole, on cells; also called hPD-L1 expressed on HCC827; hPD-L1 on MC38/hPD-L1 cells
T7 sequence (Q9NZQ7 19-290): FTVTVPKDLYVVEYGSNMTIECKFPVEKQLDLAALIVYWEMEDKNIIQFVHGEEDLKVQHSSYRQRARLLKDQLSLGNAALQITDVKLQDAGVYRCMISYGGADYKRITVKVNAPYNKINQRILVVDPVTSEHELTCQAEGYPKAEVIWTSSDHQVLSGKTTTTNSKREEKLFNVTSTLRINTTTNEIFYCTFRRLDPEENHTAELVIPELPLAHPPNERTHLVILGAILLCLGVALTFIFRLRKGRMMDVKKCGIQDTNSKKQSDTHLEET
Description: Log phase IFN-γ stimulated (500U/ml for 2 days) HCC827 cells were collected and resuspended in blocking buffer (5% BSA+PBS). 2×10\hat{ }5 cells were added to each tube and then washed once with PBS (1500 rpm, 5 mins, RT). The 100 μl/tube serial diluted PD-L1 antibodies purified from hybridoma supernatant in blocking buffer were added into corresponding tubes and were incubated at 4° C. for 1 hr. The cells were then washed twice with 1 ml PBS, followed by adding 100 μl/tube of 2nd antibody (1:400 anti-mIgG (H+L)-PE, Cell signaling) in blocking buffer. The cells were incubated at 4° C. for 1 hr and then washed twice with PBS, followed by resuspending cells in 150 μl PBS for each sample. The cells were then transferred into FACS tube and the bindings of the antibodies to the cells were detected using flow cytometry (BD Accuri C6) (see FIG. 5A).

[10] = target: T2, Recombinant Human PD-L1/CD274 Protein …; assay: ELISA, purified mouse antibody on coated hPD-L1-his
Description: High-binding clear polystyrene 96 well plates (Nunc) were coated with 100 μl/well of a 0.5 μg/ml hPD-L1-his in high pH coating buffer and incubated overnight 4° C. Then plates were washed once on an automatic plate washer using washing buffer (PBS+0.1% Tween 20 (Sigma)). 200 μl of blocking buffer (PBS+1% BSA+1% normal goat serum+0.05% Tween-20) was added to each well and incubated 2 hours at room temp. Then add serially diluted purified antibodies with dilution buffer (PBS+1% BSA+1% normal goat serum+0.01% Tween-20) and incubate for 1 hour at RT. The plates were then washed 3 times using the method described above. 100 μl/well of a solution of HRP conjugated goat anti-mouse Fc antibody (Abcam) in dilution buffer was then added to each well of the plate. After that the ELISA plates were allowed to incubate for 60 min at RT then plates were washed 3 times with 250 μl/well washing buffer. Finally, 100 μl/well of TMB was added to each well and was terminated using 0.64M H₂SO₄. The plates were read on a Thermo Multiscan FC at 450 nM (see FIG. 3).

[11] = target: T7, human PD-L1 expressed on cells; assay: blocking FACS on HCC827 cells; blocked ligand: biotinylated hPD-1-N297A
Description: Log phase IFN-γ stimulated (500U/ml for 2 days) HCC827 cells were collected and resuspended in blocking buffer (5% BSA+PBS). 2×10\hat{ }5 cells were added to each tube and then washed once with PBS (1500 rpm, 5 mins, RT). […] The cells were incubated at 4° C. for 1 hr and then washed twice with PBS, followed by resuspending cells in 150 μl PBS for each sample.

[12] = target: T1, Recombinant Mouse PD-L1/CD274 Protein …; assay: ELISA, 20 ug/ml antibody on coated mouse PD-L1 (his-tagged per text, mPD-L1-Fc per sheet title)
Procedure, shortened: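 Wells coated overnight at 4 °C with 1 μg/ml mouse PD-L1-his, blocked 2 h with BSA/goat serum buffer; purified hybridoma mouse antibodies at 20 μg/ml bound 1 h at RT. Detection by HRP goat anti-mouse Fc (60 min, RT), TMB, acid stop, absorbance at 450 nm.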

[13] = target: T2, Recombinant Human PD-L1/CD274 Protein …; assay: ELISA on coated hPD-L1-his
[14] = target: T7, human PD-L1 expressed on cells; assay: FACS, IFN-gamma stimulated HCC827 cells; remark: listed apart in the source
Description: Log phase IFN-γ stimulated (500U/ml for 2 days) HCC827 cells were collected and resuspended in blocking buffer (5% BSA+PBS). 2×10\hat{ }5 cells were added to each tube and then washed once with PBS (1500 rpm, 5 mins, RT). The 100 μl/tube serial diluted biotinylated PD-L1 antibodies with blocking buffer were added into corresponding tubes and incubate at 4° C. for 1 hr.

[15] = target: T2, Recombinant Human PD-L1/CD274 Protein …; assay: ELISA on coated hPD-L1-his; bound at pH7.4, then 2 h at pH5.5; remark: listed apart in the source
[16] = target: T2, Recombinant Human PD-L1/CD274 Protein …; assay: ELISA on coated hPD-L1-his; bound at pH7.4, then 2 h at pH7.4; remark: listed apart in the source
[17] = target: T7, human PD-L1 expressed on cells; assay: blocking FACS on HCC827 cells; blocked ligand: biotinylated hPD-1-N297A; remark: listed apart in the source
Description: Log phase IFN-γ stimulated (500U/ml for 2 days) HCC827 cells were collected and resuspended in blocking buffer (5% BSA+PBS). 2×10\hat{ }5 cells were added to each tube and then washed once with PBS (1500 rpm, 5 mins, RT). The 100 μl/tube serial diluted PD-L1 antibodies (see FIG. 8) with blocking buffer were added into corresponding tubes and incubate at 4° C. for 1 hr. […] After washing for three times with PBS, 100 μl/tube streptavidin-PE 1:200 (EBiosciences) in blocking buffer was added to each tube. The cells were incubated at 4° C. for 1 hr and then washed twice with PBS, followed by resuspending cells in 150 μl PBS for each sample. The cells were then transferred into FACS tube and the binding of the antibodies to the cells were detected with flow cytometry (ACEA Bioscience Novocyte).

[18] = target: T8, Human PD-L1/CD274 with C-Fc Tag (hPD-L1-Fc) (human, UniProt Q9NZQ7 19-238); assay: blocking ELISA on coated hPD-L1-Fc; blocked ligand: biotinylated hPD-1-N297A
T8 construct: range 19-238; ACRO Biosystem PD1-H5258, made in HEK293; also called human PD-L1-Fc; not shown: Fc fragment of human IgG1 at C-terminus
T8 sequence (Q9NZQ7 19-238 limits assumed): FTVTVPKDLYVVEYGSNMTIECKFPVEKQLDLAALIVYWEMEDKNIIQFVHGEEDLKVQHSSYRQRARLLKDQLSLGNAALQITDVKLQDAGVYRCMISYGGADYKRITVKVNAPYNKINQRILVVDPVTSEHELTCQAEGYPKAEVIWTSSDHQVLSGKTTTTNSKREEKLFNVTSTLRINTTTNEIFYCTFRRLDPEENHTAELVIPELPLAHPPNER

T1 sequence (Q9EP73 other isoform, or with tags, fused parts or gaps limits assumed): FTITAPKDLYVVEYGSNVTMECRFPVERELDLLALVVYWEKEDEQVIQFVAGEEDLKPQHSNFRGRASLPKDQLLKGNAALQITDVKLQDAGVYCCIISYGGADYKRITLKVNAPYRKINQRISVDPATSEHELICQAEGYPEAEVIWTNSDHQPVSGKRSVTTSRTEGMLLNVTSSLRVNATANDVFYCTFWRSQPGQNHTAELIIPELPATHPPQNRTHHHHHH

B1: 4B6-C (antibody, V domains shown)
VH: EVQLQQSGPELVKPGASVKISCKASGYVFTDYYMNWVKQSHGKSLEWIGDINPNNGGTSYNHKFKGKATVTVDKSSRTAYMELLSLTSEDSAVYYCVKWGDGPFAYWGQGTLVTVSA
VL: DIVMTQSQKFMSTSVGDRVSITCKASQNVGAAVAWYQQKPGQSPKLLIYSASNRYTGVPDRFTGSGSGTDFTLTISNMQSEDLADYFCQQYSNYPTFGSGTKLGIK
notes: Mouse variable regions fused to a human IgG1 constant region; also called 4B6-chimeric; chimeric antibody 4B6
Question: Which results are given for B1?
Answer: binding result [1]: no binding (tested: 20 ug/ml); EC50 (read off the curve) [2]: ~0.01 µg/mL; EC50 (read off the curve) [3]: ~0.01 µg/mL; EC50 (read off the curve) [4]: ~0.02 µg/mL; EC50 (read off the curve) [5]: ~0.01 µg/mL

B2: 22C9 (antibody, V domains shown)
VH: QVQLQQSGAELVKPGASVKLSCKASGYTFTSYWMHWVWQRPGQGLEWIGMIHPNSDITNCNENFKHTVTLTVDKSSSTAYMQLSSLTSEDSAVFYCARSDGSSYWYFDVWGTGTTVTVSS
VL: SIVMTQTPKFLSVSAGDRVTITCKAGQSVNNDVAWYQQKPGQSPKLLIYYASNRYTGVPDRFTGSGYGTDFTFTISTVQAEDLAVYFCQQDFSSPLTFGAGTKLELK
notes: Mouse monoclonal from hybridoma; also called mouse monoclonal antibody 22C9
Question: Does B2 bind [6]?
Answer: no binding (tested: 2 ug/ml)

Question: And the “Mean OD450” value [7]?
Answer: 1.92 OD450

Question: What about the “OD450 nM of sample-1” value [7] of the same binder?
Answer: 1.9 OD450

Question: What about the “OD450 nM of sample-2” value [7] of the same binder?
Answer: 1.94 OD450

Question: What about the “% of binding of Ab to E58A mutant vs. that to WT PD-L1” value [8] of the same binder?
Answer: 17.2%

Question: And the “Mean OD450” value [8]?
Answer: 0.33 OD450

Question: And the “OD450 nM of sample-1” value [8]?
Answer: 0.35 OD450

Question: What about the “OD450 nM of sample-2” value [8] of the same binder?
Answer: 0.309 OD450

Question: And the “EC50 (read off the curve)” value [9]?
Answer: ~0.1 µg/mL

Question: What about the “EC50 (read off the curve)” value [10] of the same binder?
Answer: ~0.08 µg/mL

Question: What about the “IC50 (read off the curve)” value [11] of the same binder?
Answer: ~0.2 µg/mL

Question: Does B2 bind [12]?
Answer: no binding (tested: 20 ug/ml)

B3: 23F11-C (antibody, V domains shown)
VH: QVQLQQPGAELVKPGASVKLSCKASGYSFTTYWMHWVKQRPGQGLEWIGMIQPNSGGTKYNEKFKKKATLTVDKSSTTASMELSSLTSEDSAVYYCARGAGTVDYFDYWGQGSTLTVSS
VL: DIVLTHSPVSLAVSLGQRATISCRASESVDIYGNSFMHWYQQKPGQPPKLLIYRASNLESGIPARFSGSGSRTDFTLTINPVEADDVATYYCQQSTEDPYTFGGGTKLEIK
notes: Mouse variable regions fused to a human IgG1 constant region; also called 23F11-chimeric; chimeric antibody 23F11
Question: Which results are given for B3?
Answer: EC50 (read off the curve) [13]: ~4 ng/mL; EC50 (read off the curve) [14]: ~0.04 µg/mL; EC50 (read off the curve) [15]: ~0.03 µg/mL; EC50 (read off the curve) [16]: ~0.02 µg/mL; IC50 (read off the curve) [17]: ~0.04 µg/mL; IC50 (read off the curve) [18]: ~0.05 µg/mL
